Data taken from patent US12618050B2, “Engineered polypeptides that exhibit increased catalytic efficiency for unnatural cofactors and uses thereof” (The Regents of the University of California, priority 2018, dated 2026).

Tests used:
[1] = GDH enzymatic assay with NAD^+ as cofactor; type: biochemical; conditions: for decrease of catalytic efficiency on NAD^+: versus wild type
Protocol: (§1) GDH enzymatic assays. The GDH activity was measured as described in Hilt et al. (Biochimica et biophysica acta 1076(2):298-304 (1991)). The reactions were started by adding the purified protein to the assay mixture containing 35 mM Tris-HCl buffer (pH 8.0), 3 mM NAD^+, NADP^+ or NMN^+ and 140 mM glucose. The absorbance variation at 340 nm was detected by a spectrophotometer at 25° C.

[2] = GDH enzymatic assay with NADP^+ as cofactor; type: biochemical; conditions: for decrease of catalytic efficiency on NADP^+: versus wild type
Protocol: as §1

[3] = GDH enzymatic assay with NMN^+ as cofactor; type: biochemical; conditions: for overall specificity switch towards NMN^+ from NADP^+ / overall specificity switch towards NMN^+ from NAD^+: compared to wild type
Protocol: as §1

[4] = Protein expression levels of GDH variants; design: species or system Escherichia coli; conditions: expressed in E. coli
Protocol: Proteins were purified as 6×His tag fusion at the N-terminus. E. coli BL21 (DE3) with plasmids were inoculated into LB medium with 200 mg L^−1 ampicillin. Cells were induced with 0.5 mM IPTG and expressed for 24 hours at 30° C. with shaking at 250 rpm. BM3 cytochrome P450 was extracted with the EMD Millipore™ BugBuste Plus Lysonase Kit and purified using the HisPur™ Ni-NTA Superflow Purification System according to the manufacturer's instructions. Other proteins were purified using His-Spin Protein Miniprep kit (Zymo Research Corporation, CA). The purified proteins were quantified by Bradford assay.

[5] = XenA-GDH coupled cycling biotransformation of ketoisophorone to levodione; type: biochemical
Protocol: (§2) Coupled enzymatic biotransformation. All biotransformation reactions were performed in buffer A at 30° C. for 24 hours. Reaction buffer A, modified from that disclosed in Chaparro-Riggers et al., Advanced Synthesis & Catalysis 349(8-9):1521-1531 (2007)), contained 200 mM potassium phosphate buffer (pH 7.5), 1 M NaCl, 300 mM D-glucose, 6 mM NMN^+ (or NADP^+ as the positive control), and substrates. All assays were performed in triplicate, with no proteins or no cofactors added as negative controls. The protein loading for GDH variants was kept at 0.33 mg mL^−1 or 11.7 μM. The various enzymes for biotransformation reactions were added at the concentration of 0.75 mg mL^−1.
For XenA-GDH coupled cycling assays, the substrates ketoisophorone, citral, or trans-2-hexen-1-al were added at 33 mM, 10 mM, or 50 mM, respectively. For the OYE3-GDH coupled cycling assays, the substrate 4-phenyl-3-butyn-2-one was added at 5 mM. At various time points over 24 hours, 100 μL samples were taken and extracted with 100 μL ethyl acetate. Conversion was determined via GC-FID with octanol as an internal standard (see below). For NfsB-GDH coupled cycling assays, 2 mM nitrofurazone was used as the substrate. Nitrofurazone conversion was measured spectroscopically at 400 nm and quantification was performed using a standard curve. The initial levels of the above-mentioned substrates were mainly determined by their solubility in the assay buffer. For BM3-GDH coupled cycling assays, 50 μM cytochrome c (C2506 Sigma) was used as the substrate. The reduction of cytochrome c was measured spectroscopically at 550 nm. and the quantification was performed using extinction coefficient ε550 of 21.1 mM^−1 cm^−1.
Coupled cycling conditions: All biotransformation reactions were performed in buffer A at 30° C. for 24 hours. Reaction buffer A contained 200 mM potassium phosphate buffer (pH 7.5), 1 M NaCl, 300 mM D-glucose, 6 mM NMN^+. Substrate ketoisophorone was added at 5 g/L. At various time points over 24 hours, 100 μL samples were taken and extracted with 100 μL ethyl acetate. Conversion was determined via GC-FID with octanol as an internal standard (see below).

[6] = GDH total turnover number (TTN) determination; type: biochemical; conditions: NMN^+, GDH 0.47 μM, 33 mM ketoisophorone, 96 hours
Protocol: GDH Total Turnover Number (TTN) Determination. Total turnover number (TTN) was determined by the number of moles of product formed divided by the moles of purified GDH added. The assays were performed in reaction buffer A, as shown above, at 30° C. Ketoisophorone (33 mM) was used as the substrate. The reaction was started by spiking purified proteins (0.0132 mg mL^−1 or 0.47 μM for GDH, 0.75 mg mL^−1 for XenA). Samples were taken every 12 hours for 96 hours. The extraction and GC-FID analysis were performed using a similar method as mentioned above.

[7] = XenA-GDH coupled cycling assay, citral; type: biochemical; conditions: 10 mM citral, 24 hours, NMN^+
Protocol: as §2
(§3) For XenA-GDH coupled cycling assays, the substrates ketoisophorone, citral, or trans-2-hexen-1-al were added at 33 mM, 10 mM, or 50 mM, respectively. […] Conversion was determined via GC-FID with octanol as an internal standard (see below). […] Nitrofurazone conversion was measured spectroscopically at 400 nm and quantification was performed using a standard curve. The initial levels of the above-mentioned substrates were mainly determined by their solubility in the assay buffer. […] The reduction of cytochrome c was measured spectroscopically at 550 nm. and the quantification was performed using extinction coefficient ε550 of 21.1 mM^−1 cm^−1.

[8] = XenA-GDH coupled cycling assay, trans-2-hexen-1-al; type: biochemical; conditions: 50 mM, 24 hours, NMN^+
Protocol: as §2, §3

[9] = OYE3-GDH coupled cycling assay; type: biochemical; conditions: OYE3, NMN^+
Protocol: as §2, §3

[10] = NfsB-GDH coupled cycling assay; type: biochemical; conditions: NMN^+
Protocol: as §2, §3

cytochrome c = assay: BM3-GDH coupled cycling assay; type: biochemical; conditions: BM3 W1046S, NMNH generated in situ
Protocol: as §2, §3

B1: I195R-A93K-Y39Q: Bs GDH with I195R, A93K, Y39Q substitutions (SEQ ID NO:6) (protein)
chain: MYPDLKGKVVAITGAASGLGKAMAIRFGKEQAKVVINYQSNKQDPNEVKEEVIKAGGEAVVVQGDVTKEEDVKNIVQTAIKEFGTLDIMINNKGLENPVPSHEMPLKDWDKVIGTNLTGAFLGSREAIKYFVENDIKGNVINMSSVHEVIPWPLFVHYAASKGGIKLMTETLALEYAPKGIRVNNIGPGAINTPRNAEKFADPKQKADVESMIPMGYIGEPEEIAAVAAWLASKEASYVTGITLFADGGMTQYPSFQAGRG
modifications: I195R A93K Y39Q mutant GDH coding sequence
- Kcat ([1]; cofactor NAD^+): 0.41 ± 0.026 s⁻¹
- Km ([1]; cofactor NAD^+): 3.7 ± 0.93 mM
- decrease of catalytic efficiency on NAD^+ [1]: 38 fold
- decrease of catalytic efficiency on NAD^+ ([1]; listed as GDH Triple): 1,600 fold
- Kcat ([2]; cofactor NADP^+): 4.4 ± 0.034 s⁻¹
- Km ([2]; cofactor NADP^+): 0.61 ± 0.15 mM
- decrease of catalytic efficiency on NADP^+ [2]: 1,600 fold
- decrease of catalytic efficiency on NADP^+ ([2]; listed as GDH Triple): 38 fold
- increase in catalytic efficiency over the wild-type enzyme towards NMN^+ [3]: 1,000 fold
- improvement in catalytic efficiency over I195R ([3]; NMN^+): 4 fold
- Kcat ([3]; cofactor NMN^+): 3.1 ± 0.037 s⁻¹
- Km ([3]; cofactor NMN^+): 6.1 ± 0.83 mM
- overall specificity switch towards NMN^+ from NADP^+ [3]: 1,600,000 fold
- overall specificity switch towards NMN^+ from NAD^+ [3]: 38,000 fold
- overall specificity switch towards NMN^+ from NADP^+ ([3]; listed as GDH Triple): 38,000 fold
- overall specificity switch towards NMN^+ from NAD^+ ([3]; listed as GDH Triple): 1,600,000 fold
- Expression level [4]: 25.37 μg protein/ml culture
- initial productivity of levodione ([5]; NMN^+ as cycling cofactor, XenA in excess, GDH 11.7 μM): ~1.15 µM/s
- initial turnover frequency ([5]; NMN^+, Bs GDH loading 11.7 μM): ~0.10 s⁻¹
- improvement of NMN^+-dependent productivity ([5]; versus wild type Bs GDH): 22 fold
- total turnover number (TTN) [6]: 39,000
- conversion of citral [7]: ~76%
- conversion of trans-2-hexen-1-al [8]: ~49%
- conversion of 4-phenyl-3-butyne-2-one [9]: > 99%
- conversion of nitrofurazone [10]: ~92%
- conversion (reduction) of cytochrome c (cytochrome c): > 99%
